# Test system: type 2 diabetic patients
# Assay: Treatment-emergent adverse events, SAEs, deaths, TEAEs leading to withdrawal (Example 1)
# Conditions: Safety population
# Experimental: Safety: The safety analysis was conducted on the safety population, defined as all randomized patients who received at least one dose of IMP (regardless of the amount of treatment administered). The evaluation of AEs, laboratory, vital sign, and ECG data was descriptive.
substance,measurement,setting,value
Gly(A21)-Arg(B31)-Arg(B32)-human insulin [Insulin Glargine],TEAE leading to permanent treatment discontinuation: Confusional state,PT,0 n (%)
same,TEAE leading to permanent treatment discontinuation: Dizziness,PT,0 n (%)
same,TEAE leading to permanent treatment discontinuation: Headache,PT,0 n (%)
same,TEAE leading to permanent treatment discontinuation: Nausea,PT,0 n (%)
same,TEAE leading to permanent treatment discontinuation: Ovarian cancer,PT,0 n (%)
same,TEAE leading to permanent treatment discontinuation: Vomiting,PT,0 n (%)
same,TEAE: Abdominal distension,PT,2 (1.2%) n (%)
same,TEAE: Arthralgia,PT,3 (1.9%) n (%)
same,TEAE: Asthenia,PT,0 n (%)
same,TEAE: Atrial fibrillation,PT,1 (0.6%) n (%)
same,TEAE: Back pain,PT,2 (1.2%) n (%)
same,TEAE: Bronchitis,PT,1 (0.6%) n (%)
same,TEAE: Conjunctivitis,PT,2 (1.2%) n (%)
same,TEAE: Constipation,PT,0 n (%)
same,TEAE: Contusion,PT,2 (1.2%) n (%)
same,TEAE: Cough,PT,0 n (%)
same,TEAE: Cystitis,PT,2 (1.2%) n (%)
same,TEAE: Decreased appetite,PT,0 n (%)
same,TEAE: Depression,PT,2 (1.2%) n (%)
same,TEAE: Diabetic neuropathy,PT,2 (1.2%) n (%)
same,TEAE: Diarrhoea,PT,6 (3.7%) n (%)
same,TEAE: Dizziness,PT,1 (0.6%) n (%)
same,TEAE: Dyspepsia,PT,1 (0.6%) n (%)
same,TEAE: Fatigue,PT,0 n (%)
same,TEAE: Gastroenteritis,PT,1 (0.6%) n (%)
same,TEAE: Headache,PT,12 (7.4%) n (%)
same,TEAE: Hypertension,PT,2 (1.2%) n (%)
same,TEAE: Hypertriglyceridaemia,PT,0 n (%)
same,TEAE: Influenza,PT,6 (3.7%) n (%)
same,TEAE: Injection site pruritus,PT,0 n (%)
same,TEAE: Insomnia,PT,0 n (%)
same,TEAE: Intervertebral disc disorder,PT,2 (1.2%) n (%)
same,TEAE: Laceration,PT,3 (1.9%) n (%)
same,TEAE: Lipase increased,PT,1 (0.6%) n (%)
same,TEAE: Musculoskeletal pain,PT,1 (0.6%) n (%)
same,TEAE: Nasopharyngitis,PT,9 (5.6%) n (%)
same,TEAE: Nausea,PT,0 n (%)
same,TEAE: Nepbrolithiasis,PT,2 (1.2%) n (%)
same,TEAE: Oedema,PT,2 (1.2%) n (%)
same,TEAE: Osteoarthritis,PT,2 (1.2%) n (%)
same,TEAE: Pain in extremity,PT,0 n (%)
same,TEAE: Presyncope,PT,2 (1.2%) n (%)
same,TEAE: Rhinitis,PT,2 (1.2%) n (%)
same,TEAE: Sciatica,PT,2 (1.2%) n (%)
same,TEAE: Sinusitis,PT,3 (1.9%) n (%)
same,TEAE: Tinnitus,PT,2 (1.2%) n (%)
same,TEAE: Tooth abscess,PT,2 (1.2%) n (%)
same,TEAE: Vomiting,PT,1 (0.6%) n (%)
same,Treatment emergent SAE: Angina pectoris,PT,0 n (%)
same,Treatment emergent SAE: Angina unstable,PT,0 n (%)
same,Treatment emergent SAE: Atrial fibrillation,PT,1 (0.6%) n (%)
same,Treatment emergent SAE: Bradycardia,PT,0 n (%)
same,Treatment emergent SAE: Calculus ureteric,PT,0 n (%)
same,Treatment emergent SAE: Cellulitis,PT,0 n (%)
same,Treatment emergent SAE: Depression,PT,1 (0.6%) n (%)
same,Treatment emergent SAE: Diabetic neuropathy,PT,0 n (%)
same,Treatment emergent SAE: ECG signs of myocardial ischaemia,PT,1 (0.6%) n (%)
same,Treatment emergent SAE: Intervertebral disc protrusion,PT,0 n (%)
same,Treatment emergent SAE: Osteoarthritis,PT,1 (0.6%) n (%)
same,Treatment emergent SAE: Ovarian cancer,PT,0 n (%)
same,Treatment emergent SAE: Pain in extremity,PT,0 n (%)
same,Treatment emergent SAE: Presyncope,PT,1 (0.6%) n (%)
same,Treatment emergent SAE: Radius fracture,PT,0 n (%)
same,Treatment emergent SAE: Sciatica,PT,0 n (%)
same,TEAE leading to permanent treatment discontinuation: Hypersensitivity,"PT, adjudicated as not allergic event by ARAC",0 n (%)
same,TEAE leading to permanent treatment discontinuation: Gastrointestinal disorders,SOC,0 n (%)
same,TEAE leading to permanent treatment discontinuation: Immune system disorders,SOC,0 n (%)
same,"TEAE leading to permanent treatment discontinuation: Neoplasms benign, malignant and unspecified (incl cysts and polyps)",SOC,0 n (%)
same,TEAE leading to permanent treatment discontinuation: Nervous system disorders,SOC,0 n (%)
same,TEAE leading to permanent treatment discontinuation: Psychiatric disorders,SOC,0 n (%)
same,TEAE: Cardiac disorders,SOC,1 (0.6%) n (%)
same,TEAE: Ear and labyrinth disorders,SOC,2 (1.2%) n (%)
same,TEAE: Eye disorders,SOC,7 (4.3%) n (%)
same,TEAE: Gastrointestinal disorders,SOC,15 (9.3%) n (%)
same,TEAE: General disorders and administration site conditions,SOC,5 (3.1%) n (%)
same,"TEAE: Injury, poisoning and procedural complications",SOC,11 (6.8%) n (%)
same,TEAE: Investigations,SOC,5 (3.1%) n (%)
same,TEAE: Metabolism and nutrition disorders,SOC,1 (0.6%) n (%)
same,TEAE: Musculoskeletal and connective tissue disorders,SOC,13 (8.0%) n (%)
same,TEAE: Nervous system disorders,SOC,20 (12.3%) n (%)
same,TEAE: Psychiatric disorders,SOC,2 (1.2%) n (%)
same,TEAE: Renal and urinary disorders,SOC,2 (1.2%) n (%)
same,"TEAE: Respiratory, thoracic and mediastinal disorders",SOC,4 (2.5%) n (%)
same,TEAE: Vascular disorders,SOC,3 (1.9%) n (%)
same,Treatment emergent SAE: Cardiac disorders,SOC,1 (0.6%) n (%)
same,"Treatment emergent SAE: Injury, poisoning and procedural complications",SOC,0 n (%)
same,Treatment emergent SAE: Investigations,SOC,1 (0.6%) n (%)
same,Treatment emergent SAE: Musculoskeletal and connective tissue disorders,SOC,1 (0.6%) n (%)
same,"Treatment emergent SAE: Neoplasms benign, malignant and unspecified (incl cysts and polyps)",SOC,0 n (%)
same,Treatment emergent SAE: Nervous system disorders,SOC,1 (0.6%) n (%)
same,Treatment emergent SAE: Psychiatric disorders,SOC,1 (0.6%) n (%)
same,Treatment emergent SAE: Renal and urinary disorders,SOC,0 n (%)
same,Patients with any TEAE,,82 (50.6%) n (%)
same,Patients with any TEAE leading to death,,0 n (%)

# — patent US11026999B2, “Insulin glargine/lixisenatide fixed ratio formulation” (SANOFI-AVENTIS DEUTSCHLAND GMBH, priority 2013, dated 2021)
